The results in this text go back to patent US20150362492A1 (DYAX, published 2015).

In the assay the target is T1, purified human plasma kallikrein (active form), biotinylated (human, UniProt P03952 20-390; P03952 391-638, biotinylated with Sulfo-NHS-LC-Biotin (sites not given)).
T1 construct: The protein was captured on avidin-coated plates through biotin; also called pKal; PKal
In words: complex ELISA: biotinylated kallikrein captured on avidin plate, incubated with plasma, bound C1-INH detected with polyclonal anti-C1-INH and alkaline phosphatase secondary antibody. Here is the method: Immulon 2HB plates were coated with 5 μg/ml avidin in coating buffer (100 μl) overnight at 4° C. Plates were washed three times using PBS-Tween (200 μl/each). Subsequently, 200 μl 1% BSA in PBS was added to block the unused sites. The plates were incubated at 37° C. for 1 hr. Plates were washed three times using PBS-Tween (200 μl/each). Added to the plates were: 25 μl standards or samples, 25 μl biotinylated […] and/or biotinylated kallikrein (1 μg/ml), and 50 μl binding buffer. Plates were mixed and incubated at 37° C. for 1 hour. Plates were washed three times using PBS-Tween (200 μl/each). A polyclonal antibody to C1-INH was added and incubated at room temperature for 1 hour. Plates were washed three times using PBS-Tween (200 μl/each). Alkaline phosphatase conjugated secondary antibody was added and incubated at room temperature for 1 hour. […] The OD at 450 nm was read and calculations were performed using the standard curve.
One consideration in development of the assay was that it is beneficial to employ an assay that quantitates functional C1-INH based on an enzyme that is requisite for bradykinin formation. […] Nevertheless, complex ELISA assays detecting functional interaction between C1-INH and either Factor XIIa or kallikrein worked well since only that fraction of kallikrein (˜60%) that is inhibited by C1-INH is detected.
(An ELISA detects its analyte on a solid surface through an enzyme-linked reagent.)

T1 sequence (P03952 20-390, chain 1 of 2): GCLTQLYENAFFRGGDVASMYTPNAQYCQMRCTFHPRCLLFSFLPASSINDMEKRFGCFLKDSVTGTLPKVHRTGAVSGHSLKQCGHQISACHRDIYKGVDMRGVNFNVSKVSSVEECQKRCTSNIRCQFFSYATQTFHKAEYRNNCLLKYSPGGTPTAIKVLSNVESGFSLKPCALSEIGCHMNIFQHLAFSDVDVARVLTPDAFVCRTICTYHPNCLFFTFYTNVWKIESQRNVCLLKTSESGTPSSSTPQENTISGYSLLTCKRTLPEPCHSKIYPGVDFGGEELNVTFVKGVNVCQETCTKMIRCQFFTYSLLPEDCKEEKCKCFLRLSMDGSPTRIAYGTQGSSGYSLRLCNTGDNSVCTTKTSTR
T1 sequence (P03952 391-638, chain 2 of 2): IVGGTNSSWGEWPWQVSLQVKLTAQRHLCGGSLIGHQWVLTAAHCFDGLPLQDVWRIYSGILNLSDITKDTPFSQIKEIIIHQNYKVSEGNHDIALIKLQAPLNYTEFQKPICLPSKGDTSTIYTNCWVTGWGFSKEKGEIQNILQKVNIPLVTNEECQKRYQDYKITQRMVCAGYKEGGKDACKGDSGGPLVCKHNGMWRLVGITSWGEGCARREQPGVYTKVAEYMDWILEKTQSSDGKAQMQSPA

B1: plasma protease C1 inhibitor (C1-INH) in plasma of healthy (normal) controls (other)
chain: NPNATSSSSQDPESLQDRGEGKVATTVISKMLFVEPILEVSSLPTTNSTTNSATKITANTTDEPTTQPTTEPTTQPTIQPTQPTTQLPTDSPTQPTTGSFCPGPVTLCSDLESHSTEAVLGDALVDFSLKLYHAFSAMKKVETNMAFSPFSIASLLTQVLLGAGENTKTNLESILSYPKDFTCVHQALKGFTTKGVTSVSQIFHSPDLAIRDTFVNASRTLYSSSPRVLSNNSDANLELINTWVAKNTNNKISRLLDSLPSDTRLVLLNAIYLSAKWKTTFDPKKTRMEPFHFKNSVIKVPMMNSKKYPVAHFIDQTLKAKVGQLQLSHNLSLVILVPQNLKHRLEDMEQALSPSVFKAIMEKLEMSKFQPTLLTLPRIKVTTSQDMLSIMEKLEFFDFSYDLNLCGLTEDPDLQVSAMQHQTVLELTETGVEAAAASAISVARTLLVFEVQQPFLFVLWDQQHKFPVFMGRVYDPRA
notes: Native C1-INH as present in citrated plasma of healthy human controls (purified C1-INH in buffer was used for the standard curve); also called functional C1-INH
B1: the binding result is on record as “binds”.
